The results in this text go back to patent US20210155689A1 (SHANGHAI PHARMAEXPLORER, published 2021).

Test [1] deals with T1, LAG-3-hFc protein (human LAG-3 extracellular region with hFc tag) (human, UniProt P18627 23-450).
T1 construct: also called hLAG-3-hFc; LAG-3 protein; not shown: human IgG Fc fragment (hFc) of the pCpC vector
T1 sequence: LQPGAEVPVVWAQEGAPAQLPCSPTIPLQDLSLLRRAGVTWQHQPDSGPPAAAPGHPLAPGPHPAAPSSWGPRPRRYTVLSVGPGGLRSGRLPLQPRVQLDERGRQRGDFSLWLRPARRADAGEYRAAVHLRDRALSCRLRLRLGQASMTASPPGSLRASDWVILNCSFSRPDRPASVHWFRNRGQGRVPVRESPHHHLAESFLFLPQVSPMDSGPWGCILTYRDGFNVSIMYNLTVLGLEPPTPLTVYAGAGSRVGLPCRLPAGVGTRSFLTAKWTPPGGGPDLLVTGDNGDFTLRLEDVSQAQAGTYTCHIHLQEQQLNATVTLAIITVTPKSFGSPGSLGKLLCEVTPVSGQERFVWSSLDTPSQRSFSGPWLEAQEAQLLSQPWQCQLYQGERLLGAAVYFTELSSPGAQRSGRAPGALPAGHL
The experiment in a line: FACS, inhibition of LAG-3-hFc binding to MHC II on Raji cells, antibody 2.469 nM. How it is done: The FACS reaction plate incubating the Raji cells was centrifuged to discard the supernatant. The above mixture was added as 100 μl per well to Raji cells and incubated on ice for 1-2 hours. The plate was washed twice with blocking solution (PBS, 2% fetal bovine serum) by centrifugation, added with 100 microliters of fluorescent (Alexa 488)-labeled secondary antibodies per well, and incubated on ice for 1.0 hours. The plate was washed 2-3 times by centrifugation with blocking solution (PBS, 2% fetal bovine serum), added with 100 microliters of PBS per well to suspend cells, and detected using FACS (FACS Calibur, BD) and the results were analyzed. Wherein, the IgG control was murine IgG, and the data in the table is the inhibition rate (%).

For test [2], the target named is T2, mouse LAG-3 protein with hFc tag (mLAG-3-hFc protein) (mouse; human, UniProt Q61790 24-442).
T2 construct: Made in HEK293 cells; also called mouse LAG-3 extracellular domain protein; not shown: human IgG Fc fragment (hFc) of the pCpC vector
T2 sequence: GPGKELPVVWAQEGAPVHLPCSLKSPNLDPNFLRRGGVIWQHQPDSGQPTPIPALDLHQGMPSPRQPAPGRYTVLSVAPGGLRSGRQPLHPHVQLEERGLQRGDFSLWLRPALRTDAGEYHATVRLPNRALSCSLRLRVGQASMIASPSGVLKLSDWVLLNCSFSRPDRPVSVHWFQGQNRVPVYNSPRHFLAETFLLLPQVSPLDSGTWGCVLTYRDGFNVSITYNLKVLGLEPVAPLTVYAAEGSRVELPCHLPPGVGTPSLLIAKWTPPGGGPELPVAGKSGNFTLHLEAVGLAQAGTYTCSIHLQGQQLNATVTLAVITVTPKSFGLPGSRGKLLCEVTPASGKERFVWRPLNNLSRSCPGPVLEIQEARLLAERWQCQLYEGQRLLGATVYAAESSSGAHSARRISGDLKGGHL
The experiment in a line: ELISA, mLAG-3-hFc coated; 0.0000 nM. On the procedure: (§1) The plate was sealed with plastic film and incubated overnight at 4° C. The plate was washed 2 times with the plate washing solution (PBS+0.01% Tween20) on the next day, and added with the blocking solution (PBS+0.01% Tween20+1% BSA) and blocked at room temperature for 1-2 hours. The blocking solution was poured out, and the plate was added with 50-100 μl of the antibody sample to be tested to each well, incubated at 37° C. for 1-2 hours, and washed 2-3 times with a plate washing solution (PBS+0.01% Tween20). HRP (horseradish peroxidase) labeled secondary antibody was added, and the plate was incubated at 37° C. for 1-2 hours, and washed 2-3 times with a plate washing solution (PBS+0.01% Tween20). 100 μl of TMB substrate was added to each well. After incubated at room temperature for 15-30 minutes, the plate was added with 100 μl of stop solution (1.0N HCl) to each well.

Test [3] deals with T3, human LAG-3 protein with hFc tag (hLAG-3-hFc protein) (human, UniProt P18627 23-450).
T3 construct: also called immunogen 1; LAG-3 extracellular domain protein; not shown: human IgG Fc fragment (hFc) of the pCpC vector
T3 sequence: T1 sequence
The experiment in a line: ELISA, hLAG-3-hFc coated; 0.0001 nM. On the procedure:
as §1

Where a chain is given by its changes, count along the chain named.

B1: 556F6B8 mouse-human chimeric antibody (antibody, V domains shown)
VH: RVQLKQSGPGLVQPSQSLSITCTVSGFSLIKYGVHWVRQSPGEGLEWLGVIWRGGITDYNAAFMSRLSITKDNSKSQVFFKMNSLQADDTAIYYCAKWDGPLAMDYWGQGTSVTVSS
VL: DIVMTQSHKFLSTSVGDRVSITCKASQDVGTTVAWYQQKPGQSPKLLIYWASTRHTGVPDRFTGSGSGTDFTLTISNVQSEDLADYFCQQYSSYPYTFGGGTKLEIK
notes: also called mAb123-556F6B8; 556F8B8
Regarding B1, the “Inhibition rate (%)” value in test [1] came to 41.5%.

B2: 556F6B8 (LAG-3 mouse-human chimeric antibody) (antibody, V domains shown)
VH: B1 VH
VL: B1 VL
notes: also called 556F8B8
On to B2, for which the OD450 in test [2] was 0.09 OD450; in test [3], 0.13 OD450.

B3: 105F1E10 mouse-human chimeric antibody (antibody, V domains shown)
VH: EVQLQQSGPELVKPGASVKMSCRASGYTFTDFKMHWMKQSHGKSLEWIGYIAPNNGGTAYNQKFRGKATLTVNESSNTAYMELRSLTSEDSAVYYCVDWDDVDYWGQGTTLTVSS
VL: DIKMTQSPSSMYASLGERVTITCKASQDINSYLSWFQQKSGKSPKTLIYRANRLVDGVPSRFSGSGSGQDYSLTISSLEYEDMGIYYCLQYVEFPLTFGAGTKLELK
notes: also called mAb009-105F1E10
In the case of B3, the “Inhibition rate (%)” value in test [1] came to 8.2%.

B4: 405B8H3 mouse-human chimeric antibody (antibody, V domains shown)
VH: QVQLQQSGAELVRPGASVTLSCKASGYTFTDYEMHWVKQTPVHGLEWIGATDPETGNSAYNQKFKGKAIMTADKSSSTAYMELRSLTSEDSAVYYCISTGWNDWGQGTSLTVSS
VL: B3 VL with S40P, N52D, V55L, E81G, V92D, L96Y, A100G, L106I
notes: also called mAb103-405B8H3
B4: the “Inhibition rate (%)” value in test [1] came out at 55.8%.

B5: 405B8H3 (LAG-3 mouse-human chimeric antibody) (antibody, V domains shown)
VH: B4 VH
VL: B3 VL with S40P, N52D, V55L, E81G, V92D, L96Y, A100G, L106I
notes: also called mouse-human chimeric antibody 405B8H3
As for B5, the OD450 came to 0.1 OD450 in test [2] and 0.11 OD450 in test [3].

B6: 105F1E10 (LAG-3 mouse-human chimeric antibody) (antibody, V domains shown)
VH: B3 VH
VL: B3 VL
With B6, the OD450 in test [2] was 0.08 OD450; in test [3] it was 0.13 OD450.

B7: 409B11E12 mouse-human chimeric antibody (antibody, V domains shown)
VH: B4 VH with P41T, G56S, N57Y, M70L, S98A
VL: B3 VL with I2L, S40P, V55L, V92D, L96Y, A100G, L106I
notes: also called mAb104-409B11E12
For B7, in test [1], the “Inhibition rate (%)” value stood at 59.2%.

B8: 409D4E10 (LAG-3 mouse-human chimeric antibody) (antibody, V domains shown)
VH: B4 VH with Y27N, G56D, S58T, M70L, A72T, S98T, T99S
VL: B3 VL with S40P, V55L, V92N, L96Y, A100G, L106I
For the molecule B8, the OD450 in test [2] amounted to 0.09 OD450; in test [3], 0.13 OD450.

B9: 409B11E12 (LAG-3 mouse-human chimeric antibody) (antibody, V domains shown)
VH: B4 VH with P41T, G56S, N57Y, M70L, S98A
VL: B3 VL with I2L, S40P, V55L, V92D, L96Y, A100G, L106I
For B9, the OD450 in test [2] stood at 0.08 OD450; in test [3] it was 0.12 OD450.

B10: 409D4E10 mouse-human chimeric antibody (antibody, V domains shown)
VH: B4 VH with Y27N, G56D, S58T, M70L, A72T, S98T, T99S
VL: B3 VL with S40P, V55L, V92N, L96Y, A100G, L106I
notes: also called mAb112-409D4E10
Turning to B10, in test [1], the “Inhibition rate (%)” value is 56.7%.
